Each block holds one binder with its values, some of them ahead of it.
Legend:
[1] = biological target: T1, HER2/ERBB2 receptor tyrosine kinase (human, UniProt P04626 23-1255); assay: co-immunoprecipitation: anti-MUC1-C precipitates of SKBR3 and BT474 lysates, immunoblot (FIG. 1B)
T1 construct: whole, on cells; Endogenous HER2 in cell lysates, detected by anti-HER2 immunoblot of precipitates or GST adsorbates; also called Neu; CD340
Excerpt: (FIG. 1C). […] Lysates were immunoblotted with the indicated antibodies. […] IP, immunoprecipitated.

[2] = biological target: T1, HER2/ERBB2 receptor tyrosine kinase; assay: GST pull-down from SKBR3 cell lysates, anti-HER2 immunoblot (FIG. 2A, left)
Description: Lysates from SKBR3 (left) and BT474 (right) cells were incubated with the indicated GST or GST-fusion proteins. The adsorbates were immunoblotted (IB) with anti-HER2. Input of the GST proteins was assessed by Coomassie blue staining. […] Lysates were immunoblotted with the indicated antibodies. […] Lysates were immunoblotted with the indicated antibodies. […] Cell number (mean±s.e. of three determinations) was determined by Trypan blue staining. IP, immunoprecipitated.

- binding result [1]: binds
B1: MUC1 C-terminal subunit (MUC1-C) (other)
chain: GSVVVQLTLAFREGTINVHDVETQFNQYKTEAASRYNLTISDVSVSDVPFPFSAQSGAGVPGWGIALLVLVCVLVALAIVYLIALAVCQCRRKNYGQLDIFPARDTYHPMSEYPTYHTHGRYVPPSSTDRSPYEKVSAGNGGSSLSYTNPAVAATSANL
notes: Endogenous MUC1-C in lysates of SKBR3, BT474, SKBR3R and BT474R human breast cancer cells, precipitated with anti-MUC1-C

- binding result [2]: no binding
B2: GST-MUC1-CD in which the CQC motif had been mutated to AQA (other, not shown: a dimerising Fc or GST; large carriers; small tags and cut ends)
chain: AQARRKNYGQLDIFPARDTYHPMSEYPTYHTHGRYVPPSSTDRSPYEKVSAGNGGSSLSYTNPAVAATSANL
notes: also called MUC1-CD(AQA)
